Data on 15 sequences can be found in the DeepSol protein solubility set.

The nature of this series: soluble on expression in E. coli; label from the status in PepcDB or PDB records.
“MAHHHHHHMGTLEAQTQGPGSMAKTMKAAVVRAFGKPLTIDEVPIPQPGPGQIQVAIQASGVCHTDLHAAEGDWPVKPNPPFIPGHEGVGFVSAVGSGVKHVKEGDRVGIPWLYTACGHCRHCLGGWETLCEEQLNTGYSVNGGFAEYVVADPNFVGHLPKNIDFNEIAPVLCAGVTVYKGLKVTDTKPGDWVVISGIGGLGHMAVQYARAMGLNVAAVDIDDRKLDLARRLGATVTVNAKTVADPAAYIRKETDGGAQGVLVTAVSPKAFEQALGMVARGGTVSLNGLPPGDFPLSIFNMVLNGVTVRGSIVGTRLDLQESLDFAADGKVKATIQTGKLEDINAIFDDMRQGNIEGRIVMDLTQ”: the “soluble on expression in E. coli” value is “soluble”. Turning to “MTRNPVVAGMFYPAEYHELLEMIEYCYLNPRGPRELPSKRGKYTKPLGIVSPHAGYIYSGPVAAHGYKKISENISGEITAIILGPNHTGLGSGIATMKGTWKTPFGDMEIDNEFADRLWKECDILDMDENSHLREHSIEVQLPFLKHLEDLNIAKFKFVPISMMMQDYESCIDVGYVIAKVARELNRKIVIIASTDFSHYEPQEQASKKDAVVIKDILELNDEEIFTDVVTHTISMCGYGPVIAMVKAMKDLGARTSYLLYYSTSGDVTKDYSEVVGYASLLIKLEHHHHHH”, the “soluble on expression in E. coli” value is reported as “soluble”.

As for “MRITDVRTAVVEANYDWTFVRIYTDEGLTGLGESFLAPGLTGIIRDLKPLLVGQDPLDVDRLFSRMRWAASGAGSVAGLVYNAISGIEAALWDLAGKHYGVPVFRLLGGRHRDRVRVYADCHAGEALEALSSVMIPRRPRWLSPAGAPPPAGDPVHGRAFGLEEPGEAFTPEMYAARAREVAAMGFTALKFDLDVPNPHTLDPHSGTLTHAEIRHMVSLVEAVREAVGDGVDIAFDLHWRYNVSDAVRLACELEPYGLMWLEDPVPPENVEALRRVTRSTRTPIASGENLYLRHGFREALERGALDIAAPDLQKCGGLLEGRRIADMADAHYVAVAPHCIASPIGTVAAAHVAAAVPNFLALEWHGMSVPFWEEMAAGFDGPVIRDGYIEVPEAPGLGVELNEEVARRYAREGEPFF”, the “soluble on expression in E. coli” value was “soluble”. “MFQPQDDQDACYDNSIHYTDSLLGQVFELLKDRRASVMYFADHGLERDPTKKNVYFHGGREASQQAYHVPMFIWYSPVLGDGVDRTTENNIFSTAYNNYLINAWMGVTKPEQPQTLEEVIAHYKGDSRVVDANHDVFDYVMLRKEFTEDKQGNPTPEGQG”: the “soluble on expression in E. coli” value is reported as “not soluble”. As for “MILFDFKDLSAATSWYGVNDTVMGGLSRSKLTISPLGYGIFSGHVSLANGGGFASVRCEFEHVNVAEFTGIYLDLDSDRSKQYKVNLKDADTPQSTVYQAIMPAPTHQTFGLSGASAIHWQRIEIPFTNFHPQCRGKPIAGAAIDLRRLTSIGLVIGAQQSGDFALKIKSIGCYLEHHHHHH”, the “soluble on expression in E. coli” value was “soluble”. Under “MPNIVLSRIDERLIHGQVGVQWVGFAGANLVLVANDEVAEDPVQQNLMEMVLAEGIAVRFWTLQKVIDNIHRAADRQKILLVCKTPADFLTLVKGGVPVNRINVGNMHYANGKQQIAKTVSVDAGDIAAFNDLKTAGVECFVQGVPTEPAVDLFKLL” stands “soluble”; under “GMNKKTQLLEVIAALPEELVDQALNYVQMLQNPIQITPGVCGGQARIRNTRIPVWTLVAYRQQGAPDKELLANYPGLTAEDLSAAWHYYEQNPEQIDREIAQDDLV”, “soluble”; under “MGSDKIHHHHHHMRIVYRASETFKKVHASTALVKAIRGPIGSGKSVGCVLEMFRVAQQQEPNAQGVRKTRWACVRNTYPELKGTVIKTFQTWIPEQICPIKYDSPITGKMNINHPDGKTRIEAEFLFLSMDKPKDVKKLMSLELTGIWINEAQFLPVSLVTEAVTRTGRYPEKRVEEGFMGATWNGMIMDTNSPDDDHWWYQFEQGIDEETEQPLKPKGWEFFVQPGALIDITGMPLATLSDEIKRNIEQGHYDDYLGHRFVANPIAENVINHKKGHGYWFDNIQGQTLNWIKSRVCNEFATVQQGKPVFGDHFNKELHVSTEKLVPVKGWETFIGLDFGLTPAAIIGQIAPIGQLRIVDEIVATGMGIERFITEQLSPLLRSRYAECAIQIIGDPAGVQRAQTDERTCFQLLEEYGFNARPAESNNTTARLEAVRWWLSRLVGKGQPAMLISPHCKTLIKGYETGYAYRQLNVSGEEKYTETPDKNRYSHPHDANQYLCLGAMPSLFKEQVINIKTHQPLSNITGY”, “not soluble”. Next, “MGSDKIHHHHHHMQQEQRILFKNDTGDYAAVAAGEESVLQAGLRQSVPLNYHCASGSCGSCKARLIQGALKVHTGTDFIQVSHTADQVCEYPEVHLCQSHAVSDCVFEALYDKNVPPDLVTPKHYAASLSDVRPLGSGLYRLLVDFDDSIRFLPGQYVMLATEAGGRARAYSVANFAQDSRQLEFILSCNPNGAMSPQLCDINNIGMQLQGYGPLGKAYIRPSKDKEIVMLVGGSGVSVALSTLEWAISSHYIDDRHLTIFWGVRDTSPIDLIGVLNRYAAVHSNLRVAVCSDISPSVQDRVRFPHIEFFTGYPADHIVNDASISWEGKEVYISGPPPMVDHTVRQLMINTEIDALDIKCDSFV”: “not soluble”; “NQVLSGVSFQLMPGEVHALMGENGAGKSTLMNILTGLHKADKGQISINGNETYFSNPKEAEQHGIAFIHQELNIWPEMTVLENLFIGKEISSKLGVLQTRKMKALAKEQFDKLSVSLSLDQEAGECSVGQQQMIEIAKALMTNAEVIIMDEPTAALTEREISKLFEVITALKKNGVSIVYISHRMEEIFAICDRITIMRDGKTVDTTNISETDFDEVVKKMVGRELTERYPKRTPSLGDKVFEVKNASVKGSFEDVSFYVRSGEIVGVSGLMGAGRTEMMRALFGVDRLDTGEIWIAGKKTAIKNPQEAVKKGLGFITENRKDEGLLLDTSIRENIALPNLSSFSPKGLIDHKREAEFVDLLIKRLTIKTASPETHARHLSGGNQQKVVIAKWIGIGPKVLILDEPTRGVDVGAKREIYTLMNELTERGVAIIMVSSELPEILGMSDRIIVVHEGRISGEIHAREATQERIMTLATGGR”: “not soluble”; “MGIKQYSQEELKEMALVEIAHELFEEHKKPVPFQELLNEIASLLGVKKEELGDRIAQFYTDLNIDGRFLALSDQTWGLRSWYPYDQLDEETQPTVKAKKKKAKKAVEEDLDLDEFEEIDEDDLDLDEVEEELDLEADDFDEEDLDEDDDDLEIEEDIIDEDDEDYDDEEEEIK”: “not soluble”.

On to “MGSDKIHHHHHHVSPHSPVQLSLPVYLPDDETFNSYYPAAGNDELILSLQASAEGRANKAVYLWGPVKAGRTHLMHATCARANELNRSSFYLPLGIHASISTELLEGLEQLDLVCIDDVDAIAGHPLWEEALFDLYNRVAEHKRCALVVSASATASDAGFALPDLVSRMQWGLTYQLQPMADEEKLAALQRRAAMRGLQLPEDVGRFLLNRLARDLRTLFDVLDRLDKASLVHQRKLTIPFVKEMLRL”, for which the “soluble on expression in E. coli” value is “not soluble”. Take “MSEFLPFSRPAMGVEELAAVKEVLESGWITTGPKNQALEQAFCQLTGNQHAIAVSSATAGMHITLMALKIGKGDEVITPSLTWVSTLNMISLLGATPVMVDVDRDTLMVTPEAIESAITPRTKAIIPVHYAGAPADIDAIRAIGERYGIAVIEDAAHAVGTYYKGRHIGAKGTAIFSFHAIKNITCAEGGLIVTDNENLARQLRMLKFHGLGVDAYDRQTWGRAPQAEVLTPGYKYNLTDINAAIALTQLVKLEHLNTRRREIAQQYQQALAALPFQPLSLPAWPHVHAWHLFIIRVDEQRCGISRDALMEALKERGIGTGLHFRAAHTQKYYRERFPTLSLPNTEWNSERICSLPLFPDMTTADADHVITALQQLAGQ”: the “soluble on expression in E. coli” value is on record as “soluble”. For the sequence “MAHHHHHHSLSLKGFVKVERRMADRTIKMLQSRGYFDSDYEIRHEGDYVLIPVKDGFTGPVVVKDAEKKPKVIPASGSFDIIGTIAITKKDDVEFAKEILKTHKNIKSVYLDKGVKGKERIRDLVLLAGIDSTVALYRENGCIFKIDVSKSYFSPRLATERRRLVDSILDGEFIVDMFAGSGPISIEVAKKRRVKIISIDINCAAIESLQESMRLNSLLGTITPICGDARQLIKDIHDADRIIMNHPTDAFSFLPCALEALKYGGHINYYEILNKDDVTKRLADFNFMRLKVFSYHRVHSYSKLSDLISFDLIREGEG”, the “soluble on expression in E. coli” value is reported as “soluble”. Under “MAHHHHHHMAASYLVLQRYTDLINSGDLDAAFNYLSEDIIYVTWLGVIEGKDNVVTFLRDNMRFLHFAKHFNRWRQVQHCLDADLSRHCDDSDVGGSNLFDRDGYDRQGYASFERDGMIANIVKLSMQKTRVRETVVIRDNKVVLVTLMEQL” stands “not soluble”.
